The values below come from article PMC6274866.

Experiment [1] concerns the target STIM2-2β-OASF (residues 238–504 containing the naturally occurring VAASYLIQ insertion after E383) (human). Briefly: SEC-MALS; 1 mg/mL protein injected on Superdex 200 Increase 10/300 GL at 10 °C; 20 mM TRIS, 300 mM NaCl, 1 mM DTT, pH 8.0; with 25 mM CaCl2; stoichiometric ratio = MALS molecular weight / theoretical monomer mass. For orientation: SEC sorts molecules by how far they enter the pores of the column.

The target is the same in experiment [2]. Kind of experiment: SEC-MALS; 1 mg/mL protein injected on Superdex 200 Increase 10/300 GL at 10 °C; 20 mM TRIS, 300 mM NaCl, 1 mM DTT, pH 8.0; without CaCl2; stoichiometric ratio = MALS molecular weight / theoretical monomer mass.

STIM2-2β-OASF (residues 238–504 containing the naturally occurring VAASYLIQ insertion after E383) (domain or fragment), sequence (Q9P246 238-504): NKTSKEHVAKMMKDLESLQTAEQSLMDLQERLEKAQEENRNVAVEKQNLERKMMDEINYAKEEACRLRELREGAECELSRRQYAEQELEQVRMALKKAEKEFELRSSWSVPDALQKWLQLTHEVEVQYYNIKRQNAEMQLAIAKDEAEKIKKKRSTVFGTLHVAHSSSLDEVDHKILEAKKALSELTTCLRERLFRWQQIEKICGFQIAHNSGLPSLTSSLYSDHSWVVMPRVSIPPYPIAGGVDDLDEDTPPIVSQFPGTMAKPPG

Regarding “STIM2-2β-OASF (residues 238–504 containing the naturally occurring VAASYLIQ insertion after E383) (domain or fragment)”, the stoichiometry N (as a rule, a count of units in the complex or per binding partner) was determined as 1.97 in experiment [1] and 1.96 in experiment [2].
